From the nanobody polyreactivity screen of Harvey et al. (2022) come the findings set out here.

This data set in a line: yeast display, Sf9 membrane polyspecificity reagent, FACS + sequencing; frameworks hold sequencing errors. In short, it runs like this: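 Using colony PCR, genes from sorted yeast display clones were amplified, then sequenced on MiSeq at 2 × 250 and filtered by CDR length. The clones had been stained with 10% biotinylated, detergent-solubilized Sf9 membrane reagent for 1 hour at 4 °C and sorted by FACS into low and high (top ~1%) gates on anti-HA and streptavidin fluorescence. Polyreactivity labels come from the gate of origin.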
As to “QVQLVESGGGLVQAGGSLRLSCAACGSTFWYYVMGWYRQAPGKERELVAAISTRGDSTYYADSVKGRFTISRDNAKNTVYLQMNSLKAEDTAVYYCAKSRQSSGRVRFDYWGQGTQVTVSS”, the “polyreactivity (PSR sort gate)” value is reported as “low polyreactivity”.

In the case of “QVQLVESGGGLVQAGGSLRLSCAASGSSFSPYAMGWYRQAPGKERELVAAINSGSSTNYADSVKGRFTISRDNAKNTVYLQMNSLQPEDTAVYYCAADGQLPPRGILASWEFDYWGQGTQVTVSS”, the “polyreactivity (PSR sort gate)” value was “low polyreactivity”.

Take “QVQLVESGGGLVQAGGSLRLSCAASGRILNINAMGWYRQAPGKERELVAAITWRGGRTFYADSVKGRFTISRDNAKNTVYLQMNSLKPEDTAVYYCAASSNTWYPTGYYWGQGTQVTVSS”: the “polyreactivity (PSR sort gate)” value is “high polyreactivity”.

For the sequence “QVQLVESGGGLVQAGGSLRLSCAASGRTFVGYAMGWYRQAPGKERELVAVISGRGGSTYYADSVKGRFTISRDNAKNTVYLQMNSLKPEDTAVYYCAAYVARKWTSGYWGQGTQVTVSS”, the “polyreactivity (PSR sort gate)” value was “high polyreactivity”.

With “QVQLVESGGGLVQAGGSLRLSCAASGSTFRSYAMGWYRQAPGKERELVAAISYSGDSTYYADSVKGRFTISRDNAKNTVYLQMNSLKPEDTAVYYCAALRDWDIQGEPWKRYGYWGQGTQVTVSS”, the “polyreactivity (PSR sort gate)” value was “low polyreactivity”.

Regarding “QVHLVVSGGGLVQAGGSLRLSCAASGLTIWYYAMGWYRQAPGKESEFVAAITSRGGDTYYADSVKGRFTISRDNAKNTVYLQMNSLKPEDTAVYYCAVRPRYYGTYRYYYWGQGTQVTVSS”, the “polyreactivity (PSR sort gate)” value is recorded as “high polyreactivity”.

Regarding “QDQLVESGGGLVQAGGSLRLSCAASGRIFVYNDMGWYIQAPGKERELVAAISSVGTTYYADSVKGRFTISRDNAKNTVYLQMNSLIPEDTAVYYCAVTRYQSPPRYYYWGQGTQVTVSS”, the “polyreactivity (PSR sort gate)” value is listed as “low polyreactivity”.

Regarding “QVQLVESGGGLVQAGGRLRLTCAASGSIFGTYAMGWYRQAPGKERELVAAINSGDSTYYADSVKGRFTISRDNAKNTVYLQMNSLKPEDTAVYYCAAGRYWPGDYWGQGTQVTVSS”, the “polyreactivity (PSR sort gate)” value is reported as “high polyreactivity”.

As for “QVQLVESGGGLVQAGGSLRLSCAASGSTFNRNAMGWYRQAPGKERELVASISSGDNTKYADSVKGRFTISRDNAKNTVYLKMNSLKPEDTAVYYCNTVNKSLYAGLRKRWGGYYYWGQGTQVTVSS”, the “polyreactivity (PSR sort gate)” value is “high polyreactivity”.

Regarding “QVQLVESGVGLVQAGGSLRLSCAASGSTILQNAMGWYRQAPGKERELVAAISRSGGSTYYADSVKGRFTISRDNAKNTVYLQMNSLKPEDTAVYYCAAGGRRYDDDYWGQGTQVTVSS”, the “polyreactivity (PSR sort gate)” value was “high polyreactivity”.

On to “QVQLVESGGGLVQAGGSLRLSCAASGIIFSYYDMGWYRQAPGKERELVATITGNGGSTYYADSVKGRFTISRDNAKNTVYLQMNSLKPEDTAVYYCAAQTTVYIYDYWGQGTQVTVSS”, for which the “polyreactivity (PSR sort gate)” value is “low polyreactivity”.

As for “QVQLVETGGGLVQAGGSLRLSCAASGFTFKLYAMGWYRQAPGKERVLVAAISSSGGRTYYADSVKGRFTISRDNAKNTVYLQMNSLKPEDTAVYYCNAVRTVNDYHYDYWGQGTQVTVSS”, the “polyreactivity (PSR sort gate)” value was “high polyreactivity”.

As for “QVQLVESGGGLVQAGGSLRLSCAASGSTFSGNAMGWYRQAPGKEREFVAAIFSDGSTYYADSVKGRFTISRDNAKNTVYLQMNSLKPEDTAVYYCAAAWYEPATQTGYFEFDYWGQGTQVTVSS”, the “polyreactivity (PSR sort gate)” value is “low polyreactivity”.

For “QVQLVESGGGLVQAGGSLSLSCAASGRTFTPNVMGWYRQAPGKERELVAGISSTGGSTYYADSVKGRFTISRDNAKNTVYLHMNSLKPEDTAVYYCAKEYYDGYFPTFDYDYWGQGTQVTVSS”, the “polyreactivity (PSR sort gate)” value is on record as “low polyreactivity”.

“QVQLVESGGGLVQAGGSLRLSCAASGSTFVYYVMGWYRQAPGKQRELVAAISTSGGSTYYADSVKGRFTISRDNAKKTVYLQMNSLKPEDTAVYYCAARVYYKYDYWGQGTQVTVSS”: the “polyreactivity (PSR sort gate)” value is “low polyreactivity”.

With “QVQLVESGGGLVQAGGSLRLSCAASGRTFKYYTMGWYRQAPGKERELVAAISGGGGITNYADSVKGRFTISRDNAKNTVYLQMNSQKPEDTAVYYCYARYNSWRYLAQYNYWGQGTQVTVSS”, the “polyreactivity (PSR sort gate)” value is reported as “high polyreactivity”.

In the case of “QVQLVESGRGLVQAGGSLRLSCAASGSIFDKYAMGWDRQAPGKEREMVAAISYSGGRTYYADSVKGRFTISRDNAKNTVYLQMNCLNPEDTAVYYCNAVGSVITDFGYWGQGTQVTVSS”, the “polyreactivity (PSR sort gate)” value is reported as “low polyreactivity”.

In the case of “QVQLVESGGGLVQAGGSLRLSCAASGRTIWVYAMGWYRQAPGKERELVAAIRWSAGTTYYADSVKGRFTISRDNAKNTVYLQMNSLKPEDTAVYYCAADASSRYGVLEVDYWGQGTQVTVSS”, the “polyreactivity (PSR sort gate)” value is reported as “high polyreactivity”.

As to “QVQLVESGGGLVQAGGSLRLSCAASGRILYVYAMGRYRQAPGKERELVAAITSGGSTHYADSVKGRFTISRDNAKNTVYLQMNSLKPEDTAVYYCAAYTLRNRGGFNYWGQGTQVTVSS”, the “polyreactivity (PSR sort gate)” value is listed as “high polyreactivity”.

For “QVQLVESGGGLVKAGGSLRLSCAASGRIIEKYAMGWYRQAHGKEREFVAAIDWSGGSTYYADSVKGRFTISRDNAKNTVSLQKNSLKPEDTAVYYCAAYWYYEDGQSEARLYGYDYWGQGTQVTVSS”, the “polyreactivity (PSR sort gate)” value was “low polyreactivity”.

As to “QDQLVDSGGGLVQAGGSLRLSCAASGSIFWTYAMGWYRQAPGKERELVATITYSDGNTYYADSVKGRFTISRDNAMNTVYLQMNSLKPEDTAVYYCNADGIYASISGYRYDYWGQGTQVTVSS”, the “polyreactivity (PSR sort gate)” value was “low polyreactivity”.

With “QVQLVESGGGLVQAGGSLRLSCAASGIIFSEYAMGWYRQAPGKERELVAAISKSGGRTYYADSVKGRFTISRDNAKNTVYLQMNSLKPEDTAVYYCAARHAPILGDHGDYDYWGQGTQVTVSS”, the “polyreactivity (PSR sort gate)” value is on record as “high polyreactivity”.

As to “QVQLVESGGGLVQAGGSLRLSCAASGRTFNYYAMGSYRQAPGKERELVAAISWSGTPTYYADSVKGRFTISRDNAKNTVYLQMNSLKPEDTAVYYCAAHSGSTYKYWGQGTQVTVSS”, the “polyreactivity (PSR sort gate)” value is on record as “low polyreactivity”.

With “QVQLVESGGGLVQAGGSLRLSCAASGITFYTYAMGWYRQAPGKERELVAAITNGGNTSYADSVKGRFTISRDNAKNTVYLQMNSLKPEDTAVYYCAAVVTLPIWGNWYYVRYGYWGQGTQVTVSS”, the “polyreactivity (PSR sort gate)” value was “low polyreactivity”.

In the case of “QVQLVESGGGLVQAGGSLRLSCAASGLIFYLYAMGWYRQAPGKERELVAAFTYSGGSTRYADSVKGRFTISRDNAKNTVYLQMNSLKPEDTAVYYCNADGTAPTEMDYWGQGTQVTVSS”, the “polyreactivity (PSR sort gate)” value was “low polyreactivity”.

For “QVQLVESGGGLVQAGGSLRLSCAASGITFVSYGMGWYRQAPGKERELVAAISSGGRTYADSVKGRFTISRDNAKNTVYLQMNSLKPEDTAVYYCNARDYASGTEGDYWGQGTLVTVSS”, the “polyreactivity (PSR sort gate)” value is reported as “low polyreactivity”.

Regarding “QVQLVESGGGLVQAGGSLRLSCAASGRTFVFNTMGWYRQAPGKERELVADISRGDSTNYADSVKGRFTISRDNAKNTVYLQMNSLKPEDTAVYYCAAKWRWSGSILYRYGYGYWGQGTQVTVSS”, the “polyreactivity (PSR sort gate)” value is “high polyreactivity”.

As for “QVQLVESGGGLVHAGGSLRLSCAASGSTYRANSMGWYRQAPGKERELVAAITRRGGSTYYADSVKGRFTISRDNAKNTVYLQMNSLKPEDTAVYYCAAASRYGEGDYWGQGTQVTVSS”, the “polyreactivity (PSR sort gate)” value is reported as “high polyreactivity”.

As to “QVQLVESGGGLVQAGGSLRLSCAASGIIFINYVKGWYRQAPGKESELVAAITGSGSSTYYADSVKGRFTISRDNAKNTVYLQMNSLKPEDTAVYYCAADNPRVRFLYYYWGQGTQVTVSS”, the “polyreactivity (PSR sort gate)” value is “high polyreactivity”.

As to “QVQRVESGGGLVQAGGSLRLSCAASGRIFSIYGMGWYRQAPGKERELVAVISGSVGITYYADSVKGRFTISRDNAKNTVYLQINSLKPEDTAVFYCNAKVRRRKYDYWGQGTQVTVSS”, the “polyreactivity (PSR sort gate)” value is “high polyreactivity”.

For the sequence “QDQLVESGGGLVQAGGSLRLICAASGSILSGYAMGWYRQAPGKERELVAAITSGGDTNYADSVKGRFTISRDNAKNTVYLQMNSLKPEDTAVYYCNRRGDFRIAYYDPMDYWGQGTQVTVSS”, the “polyreactivity (PSR sort gate)” value is given as “low polyreactivity”.

Regarding “QVQLVESGGGLVQAGGSLRLSCAASGFIFRYYAMGWYRQAPGKERELVAAISWSGGSTYYADSVKGRFTISRDNAMNTVYLQMNSLKPEDTAVYYCAADRYAILFYAEDYWGQGTQVTVSS”, the “polyreactivity (PSR sort gate)” value is “low polyreactivity”.

On to “QVQLVESGGGLVQAGGSLRLSCAASGRTFPGYAMGWYRQAPGKETELVATISSADSTNYADSVKGRFTISRDNAKNTVYLQMNSLKPEDTAVYYCAERYGRNGAAAQYTGWYRYDYWGQGTQVTVSS”, for which the “polyreactivity (PSR sort gate)” value was “low polyreactivity”.

Take “QVQLVESGGGLVQAGGSLRLSCAASGFTFKSYTMGSYRQAPGKERELVAAISRRDGSTYYADSVKGRFTISRDNAKNTVYLQMNSLKPEDTAVYYCAKVWYGDRNIDRYDYWGQGTQVTVSS”: the “polyreactivity (PSR sort gate)” value is “high polyreactivity”.

On to “QVQLVESGGGLVQAGGSLRLSCAASGRIFARYAMGWYRQAPGKERELVASINSGGNTYYADSVKGRFTISRDNAKNTVYLQMNSLKPEDTAVYYCAAVVGRRASSRSRFEYDYWGQGTQVTVSS”, for which the “polyreactivity (PSR sort gate)” value is reported as “low polyreactivity”.

In the case of “QVQLVESGGGVVQAGGSLRLSCAASGRIFVGYDMGWYRQAPGKEWELVAAINRSGSSTYYADSVKGRFTISRDNAKNTVYLQMNSLKPEDTAVYYCNDRSGNRYGPRYDYWGQGTQVTVSS”, the “polyreactivity (PSR sort gate)” value was “high polyreactivity”.

“QVQLVESGGCLVQAGCSGRLSCAASGYTLTINVMGWDRQAPGKERELVAAITTSCASTNYADSVKGRFTISRDNAKNSVYLKMNSLKPEDTSVYYCAADYLSFVVVKLYGYWGQRTQVTVSS”: the “polyreactivity (PSR sort gate)” value is on record as “low polyreactivity”.

In the case of “QVQLVESGGGLVQAGGSLRLSCAASGFTFSYYAMGWYIQAPGKERELVATITWGGGRTYYADSVKGRFTISRDNAKNTVYLQMNSLKPEDTAVYYCNAERTYFQYYRNYDYWGQGTKVTVSS”, the “polyreactivity (PSR sort gate)” value is reported as “low polyreactivity”.

In the case of “QVQLVESGGGLVQAGGSLRLSCAASGRTFVRYALGWYRQAPGKERELVAAISWNDNSTYYADSVKGRFTISRDNAKNTVYLQMNSLKPEDTAVYYCATRVLTQQPGYQAYIFPEFDYWGQGTQVTVSS”, the “polyreactivity (PSR sort gate)” value is recorded as “low polyreactivity”.

Regarding “HEQLQESGGGLVQAVGSLRLSCAASGHISRSSTMGWYRQAPGKERELVTAITRGTNTNYADSVKGRFTISRDNAKNSEYLQMNSLKPEDTAVYYCAAYGVLKPSRGDAVFHRYWGQGTQVTVSR”, the “polyreactivity (PSR sort gate)” value is “low polyreactivity”.
